Assay results as given in publication PMC9758055.

Legend:
[1] = target: SNAPC1;SNAPC3;SNAPC4 1-516;SNAPC5;TBP;TFIIB;TFIIA;TFIIF;RNA polymerase II (Homo sapiens;Homo sapiens;Homo …, UniProt Q16533;Q92966;Q5SXM2;O75971;P20226;Q00403;P52655;P52657;P35269;P13984;A0A8D1DPV6 …, ||||||||); assay: cryo-EM; closed complex; GraFix; TFIIE added in assembly; Zn2+ in SNAPC3; EMSA: 250 mM NaCl, 50 mM HEPES pH 7.9, 20% glycerol, 1 mM TCEP, room temperature 15 min; 20 pM SNAPc, 5 pM DNA, 25 pM TBP/TFIIB (units as printed). Cryo-EM: ass; conditions: tags: ;;;;;;;;; copies: 1;1;1;1;1;1;1;1;1;1;1;1;1;1;1;1;1;1;1;1;1;1; blunt
[2] = target: SNAPC1;SNAPC3;SNAPC4 1-516;SNAPC5;TBP;TFIIB;TFIIA (Homo sapiens;Homo sapiens;Homo …, UniProt Q16533;Q92966;Q5SXM2;O75971;P20226;Q00403;P52655;P52657 …, ||||||); assay: cryo-EM; local map of SNAPc-containing upstream complex; GraFix; EMSA: 250 mM NaCl, 50 mM HEPES pH 7.9, 20% glycerol, 1 mM TCEP, room temperature 15 min; 20 pM SNAPc, 5 pM DNA, 25 pM TBP/TFIIB (units as printed). Cryo-EM: ass; conditions: protein: recombinant;recombinant;recombinant;recombinant;recombinant;recombinant;recombinant; tags: ;;;;;;; copies: 1;1;1;1;1;1;1;1; blunt
[3] = target: SNAPC1;SNAPC3;SNAPC4 1-516;SNAPC5 (Homo sapiens;Homo sapiens;Homo …, UniProt Q16533;Q92966;Q5SXM2;O75971 1-368;1-411;1-516;1-98, |||); assay: EMSA; SNAPc-core alone; EMSA: 250 mM NaCl, 50 mM HEPES pH 7.9, 20% glycerol, 1 mM TCEP, room temperature 15 min; 20 pM SNAPc, 5 pM DNA, 25 pM TBP/TFIIB (units as printed). Cryo-EM: ass; conditions: protein: recombinant;recombinant;recombinant;recombinant; tags: ;;;; copies: 1;1;1;1; blunt
[4] = target: SNAPC1;SNAPC2;SNAPC3;SNAPC4 full length;SNAPC5;TBP;TFIIB (Homo sapiens;Homo sapiens;Homo …, UniProt Q16533;Q13487;Q92966;Q5SXM2;O75971;P20226;Q00403 …, ||||||); assay: EMSA; SNAPc-FL with TBP and TFIIB; EMSA: 250 mM NaCl, 50 mM HEPES pH 7.9, 20% glycerol, 1 mM TCEP, room temperature 15 min; 20 pM SNAPc, 5 pM DNA, 25 pM TBP/TFIIB (units as printed). Cryo-EM: ass; conditions: protein: recombinant;recombinant;recombinant;recombinant;recombinant;recombinant;recombinant; tags: ;;;N-terminal StrepTwin, C-terminal His;;;; copies: 1;1;1;1;1;1;1; blunt
[5] = target: SNAPC1;SNAPC2;SNAPC3;SNAPC4 full length;SNAPC5 (Homo sapiens;Homo sapiens;Homo …, UniProt Q16533;Q13487;Q92966;Q5SXM2;O75971 1-368;1-334;1-411;1-1469;1-98, ||||); assay: EMSA; SNAPc-FL alone; EMSA: 250 mM NaCl, 50 mM HEPES pH 7.9, 20% glycerol, 1 mM TCEP, room temperature 15 min; 20 pM SNAPc, 5 pM DNA, 25 pM TBP/TFIIB (units as printed). Cryo-EM: ass; conditions: protein: recombinant;recombinant;recombinant;recombinant;recombinant; tags: ;;;N-terminal StrepTwin, C-terminal His;; copies: 1;1;1;1;1; blunt
[6] = target: SNAPC1;SNAPC3;SNAPC4 1-516;SNAPC5;TBP;TFIIB (Homo sapiens;Homo sapiens;Homo …, UniProt Q16533;Q92966;Q5SXM2;O75971;P20226;Q00403 1-368;1-411;1-516;1-98;1-339;1-316, |||||); assay: EMSA; SNAPc-core with TBP and TFIIB; EMSA: 250 mM NaCl, 50 mM HEPES pH 7.9, 20% glycerol, 1 mM TCEP, room temperature 15 min; 20 pM SNAPc, 5 pM DNA, 25 pM TBP/TFIIB (units as printed). Cryo-EM: ass; conditions: protein: recombinant;recombinant;recombinant;recombinant;recombinant;recombinant; tags: ;;;;;; copies: 1;1;1;1;1;1; blunt

Measured: binding result

B1: engineered U5 promoter cryo-EM scaffold (96 bp) (dsDNA)
DNA 1: AGTAGACACCATCAGTGTACTAGGACCCGAAAATTGAGTTACAGAAGTAACTGGTATACTCTGGTTTCTCTTCAGATCGCATAAAACCTGGCAGGG
DNA 2: CCCTGCCAGGTTTTATGCGATCTGAAGAGAAACCAGAGTATACCAGTTACTTCTGTAACTCAATTTTCGGGTCCTAGTACACTGATGGTGTCTACT
binds: [1] | [2]

B2: U1 promoter EMSA fragment (76 bp) (dsDNA)
DNA 1: GAAACGTTGTGCCTCTGCCCCGACACAGCCTCATACGCCTCACTCTTTACACACACGGTCACTTGCCCCGCGCACT
DNA 2: AGTGCGCGGGGCAAGTGACCGTGTGTGTAAAGAGTGAGGCGTATGAGGCTGTGTCGGGGCAGAGGCACAACGTTTC
binds: [3] | [4] | [5] | [6]

B3: U5 promoter EMSA fragment (75 bp) (dsDNA)
DNA 1: ACCAGTTACTTCTGTAACTCAATTTTCGGGTAACTGCAATTCCTAGTACACTGATGGTGTCTACTAATCCCAAGG
DNA 2: CCTTGGGATTAGTAGACACCATCAGTGTACTAGGAATTGCAGTTACCCGAAAATTGAGTTACAGAAGTAACTGGT
binds: [3] | [4] | [5] | [6]
